# Substitutions are numbered along the chain they refer to. Where no end group is shown, it is not given here.
# T1: rhesus monkey NPY Y4 receptor protein of SEQ ID NO: 2 (encoded by the nucleotide sequence of SEQ ID NO: 1) (rhesus monkey, UniProt P0DQD5 1-375 (human entry))
# T1 chain: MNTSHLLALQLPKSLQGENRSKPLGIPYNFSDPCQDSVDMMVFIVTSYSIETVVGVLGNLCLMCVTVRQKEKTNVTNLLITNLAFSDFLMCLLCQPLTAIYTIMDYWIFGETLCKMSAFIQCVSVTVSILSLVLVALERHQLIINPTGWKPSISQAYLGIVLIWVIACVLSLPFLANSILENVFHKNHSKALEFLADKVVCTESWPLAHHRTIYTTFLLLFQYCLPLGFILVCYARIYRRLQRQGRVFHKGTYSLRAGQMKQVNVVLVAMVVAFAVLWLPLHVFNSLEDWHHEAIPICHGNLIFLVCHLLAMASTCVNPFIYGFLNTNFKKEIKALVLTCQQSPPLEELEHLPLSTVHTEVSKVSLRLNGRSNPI
# T2: rhesus monkey NPY Y4 receptor protein of SEQ ID NO: 4 (encoded by the nucleotide sequence of SEQ ID NO: 3) (rhesus monkey, UniProt P0DQD5 1-375 (human entry))
# T2 chain: T1 chain with V361A
# B1: human Pancreatic Polypeptide (peptide, UniProt P01298 30-65, looked up)
# peptide: APLEPVYPGDNATPEQMAQYAADLRRYINMLTRPRY
# modifications: ends and bridges not checked
# notes: mature; also called human PP; PP
# B2: human Neuropeptide-Y (peptide)
# peptide: not shown
# notes: mature; also called human NPY; NPY
# B3: swine Peptide YY (peptide)
# peptide: not shown
# notes: mature; also called swine PYY; PYY
# Columns and labels:
# [1] = molecular target: T1, rhesus monkey NPY Y4 receptor protein …; test: cell-based or functional assay
# [2] = molecular target: T2, rhesus monkey NPY Y4 receptor protein …; test: cell-based or functional assay
# [3] = molecular target: T1, rhesus monkey NPY Y4 receptor protein …; test: competition against 59 pM [125I]human PP, COS-7 membrane fractions, filter binding
# Protocol: (§1) The membrane fraction obtained in this manner was incubated for 2 hours at 25° C. together with 31 pM [¹²⁵I]human PP in 25 mM Tris buffer (pH 7.4) containing 10 mM MgCl₂, 1 mM phenylmethylsulfonyl fluoride, 0.1% bacitracin and 0.5% bovine serum albumin, and then filtered through a polyethyleneimine-treated UniFilter-96 GF/C (Perkin-Elmer). After rinsing with 5 mM Tris buffer (pH 7.4) containing 0.3% bovine serum albumin and drying, MicroScint0 (Perkin-Elmer) was added, and a TopCount HTS (Packard) was used to measure the residual radioactivity on the filter. The non-specific binding was measured in the presence of 1 μM human PP.
# (§2) Also, with the membrane fraction concentration set to 0.155 and 0.14 mg protein/ml and the [¹²⁵I]human PP concentration set to 59 pM, human PP, human NPY and swine PYY were added to the reaction solution at different concentrations, and a Prism Version 4.00 (GraphPad) was used to determine the 50% inhibitory concentration (IC₅₀ value) from the inhibition curve for each peptide against specific [¹²⁵I]human PP binding (FIGS. 3 and 4).
# [4] = molecular target: T2, rhesus monkey NPY Y4 receptor protein …; test: as above
# Protocol: as §1, §2
Binder,"EC50 of the increase in fluorescent intensity (intracellular calcium ion concentration, Fluo-4, FLIPR) in CHO-K1 cells with G alpha 15 [1]","EC50 of the increase in fluorescent intensity (intracellular calcium ion concentration, Fluo-4, FLIPR) in CHO-K1 cells with G alpha 15 [2]",IC50 [3],IC50 [4]
B1,1.8 nM,4.8 nM,0.24 nM,0.17 nM
B2,,,100 nM,97 nM
B3,,,10 nM,9.9 nM
